# Measurements: patent US5674842A, “Growth inhibitory peptide” (Health Research, Incorporated, priority 1994, dated 1997)
# What was measured:
# [1] = Retention of inhibitory activity on storage; format: physicochemical; settings: transformed human AFP preparation
# [2] = tested on: estrogen-stimulated growth of mouse uterus; settings: full-length transformed AFP molecule, see references cited; cited from earlier work
molecule,measurement,setting,value
"full-length transformed AFP molecule: full-length alpha-fetoprotein transformed by incubation with estradiol to an inhibitor of estrogen-stimulated growth (protein, UniProt P02771 1-609, looked up, full-length estradiol-transformed) MKWVESIFLIFLLNFTESRTLHRNEYGIASILDSYQCTAEISLADLATIFFAQFVQEATYKEVSKMVKDALTAIEKPTGDEQSSGCLENQLPAFLEELCHEKEILEKYGHSDCCSQSEEGRHNCFLAHKKPTPASIPLFQVPEPVTSCEAYEEDRETFMNKFIYEIARRHPFLYAPTILLWAARYDKIIPSCCKAENAVECFQTKAATVTKELRESSLLNQHACAVMKNFGTRTFQAITVTKLSQKFTKVNFTEIQKLVLDVAHVHEHCCRGDVLDCLQDGEKIMSYICSQQDTLSNKITECCKLTTLERGQCIIHAENDEKPEGLSPNLNRFLGDRDFNQFSSGEKNIFLASFVHEYSRRHPQLAVSVILRVAKGYQELLEKCFQTENPLECQDKGEEELQKYIQESQALAKRSCGLFQKLGEYYLQNAFLVAYTKKAPQLTSSELMAITRKMAATAATCCQLSEDKLLACGEGAADIIIGHLCIRHEMTPVNPGVGQCCTSSYANRRPCFSSLVVDETYVPPAFSDDKFIFHKDLCQAQGVALQTMKQEFLINLVKQKPQITEEQLEAVIADFSGLLEKCCQGQEQEVCFAEEGQKLISKTRAALGV",time activity is retained,[1],one
same,inhibition of estrogen-stimulated growth,[2],20-40%
